Paper PMC2500128 (The Journal of Cell Biology, 2008)
Like-named read-outs stand apart in the source and are kept apart here.

Key:
[1] = target: microtubules (Cy5-labeled tubulin from porcine brain) (porcine (purified from porcine brain)) (UniProt P02550); test: single-molecule fluorescence motility assay
[2] = target: microtubules (Cy5-labeled tubulin from porcine brain) (porcine (purified from porcine brain)) (UniProt P02550); test: single-molecule fluorescence motility assay; remark: listed apart in the source
[3] = target: the molecule itself; test: single-molecule fluorescence and photobleaching

Eg5-513-GFP (from UniProt P28025 1-513) (domain or fragment)
time bound to the microtubule [1]: < 2 s

full-length Xenopus laevis Eg5-GFP (from UniProt P28025 1-1067) (natural protein)
average duration of motile events (binding events) [1]: 34 s | average duration of motile events (binding events) [2]: 16 s

B1: Eg5-513-GFP (domain or fragment, X. laevis)
chain: MSSQNSFMASKKEDKGKNIQVVVRCRPFNQLERKASSHSVLECDSQRKEVYVRTGEVNDKLGKKTYTFDMVFGPAAKQIEVYRSVVCPILDEVIMGYNCTIFAYGQTGTGKTFTMEGERSSDEEFTWEQDPLAGIIPRTLHQIFEKLSENGTEFSVKVSLLEIYNEELFDLLSPSPDVGERLQMFDDPRNKRGVIIKGLEEISVHNKDEVYHILERGAARRKTASTLMNAYSSRSHSVFSVTIHMKETTVDGEELVKIGKLNLVDLAGSENIGRSGAVDKRAREAGNINQSLLTLGRVITALVERTPHIPYRESKLTRILQDSLGGRTKTSIIATVSPASINLEETVSTLDYANRAKSIMNKPEVNQKLTKKALIKEYTEEIERLKRELAAAREKNGVYLSSENYEQLQGKVLSQEEMITEYTEKITAMEEELKSISELFADNKKELEECTTILQCKEKELEETQNHLQESKEQLAQESFVVSAFETTEKKLHGTANKLLSTVRETTRDVSGLGSSGGGGSGGGGSGGGGS
stoichiometry N [3]: 2
